From IntAct's records for PubMed 26751287

B1: Transmembrane glycoprotein NMB (Homo sapiens), Q14956-1 (parent)
chain: MECLYYFLGFLLLAARLPLDAAKRFHDVLGNERPSAYMREHNQLNGWSSDENDWNEKLYPVWKRGDMRWKNSWKGGRVQAVLTSDSPALVGSNITFAVNLIFPRCQKEDANGNIVYEKNCRNEAGLSADPYVYNWTAWSEDSDGENGTGQSHHNVFPDGKPFPHHPGWRRWNFIYVFHTLGQYFQKLGRCSVRVSVNTANVTLGPQLMEVTVYRRHGRAYVPIAQVKDVYVVTDQIPVFVTMFQKNDRNSSDETFLKDLPIMFDVLIHDPSHFLNYSTINYKWSFGDNTGLFVSTNHTVNHTYVLNGTFSLNLTVKAAAPGPCPPPPPPPRPSKPTPSLATTLKSYDSNTPGPAGDNPLELSRIPDENCQINRYGHFQATITIVEGILEVNIIQMTDVLMPVPWPESSLIDFVVTCQGSIPTEVCTIISDPTCEITQNTVCSPVDVDEMCLLTVRRTFNGSGTYCVNLTLGDDTSLALTSTLISVPDRDPASPLRMANSALISVGCLAIFVTVISLLVYKKHKEYNPIENSPGNVVRSKGLSVFLNRAKAVFFPGNQEKDPLLKNQEFKGVS

Variants of: B1
Conditions: with ptk6_human PTK6, Q13882

Row | effect of a mutation on the interaction | Variant
1 | disrupting interaction strength | Y525F
